Target: T1, LPXTG peptide DABCYL-QALPETGEE-EDANS
T1 chain: QALPETGEE

B1: SrtADN (SrtA in which the NH2-terminal membrane anchor segment is replaced with a six histidine tag) (protein)
chain: KPHIDNYLHDKDKDEKIEQYDKNVKEQASKDKKQQAKPQIPKDKSKVAGYIEIPDADIKEPVYPGPATPEQLNRGVSFAEENESLDDQNISIAGHTFIDRPNYQFTNLKAAKKGSMVYFKVGNETRKYKMTSIRDVKPTDVGVLDEQKGKDKQLTLITCDDYNEKTGVWEKRKIFVATEVK
LPXTG peptide cleavage activity of MTSET-inactivated SrtADN after 10 mM DTT: restored 80% of LPXTG peptide cleavage activity | cleavage of LPXTG peptide in the presence of 0.2 M NH2OH (fluorescence): Addition of 0.2 M NH2OH to this reaction resulted in an increase in fluorescence | cleavage of LPXTG peptide measured as an increase in fluorescence: SrtADN catalyzed cleavage of the substrate | hydroxylaminolysis of LPXTG peptide after pre-incubation with MTSET: pre-incubation with MTSET abolished all enzymatic activity
